# Reference: a protein production outcome set (Wang et al. 2014)
# Test: label from the status in PepcDB records
row,Sequence,protein production
1,MILINKRAEKQDYQTILAIWEKSVIVTHDFLTAEDRQFYKEQIPLFLDNVELFLWFAGEEVIGFSGTSERELDMLFLDPVATGNGYGSQILGWLIENKRINLVDVNEQNENATRFYLKHGFVVSSRSDLDGFGKPYPILQLQLKERVNGV,not failed
2,MILINLFITFLKIGLLNFGGGNGIAAIINNEIINNKHWITKEEFVNMITISRITPGPIATNIATYVGMKTAGIAGAIIATVALITAPIIIMIIILLILHKIGFLNYCLENLKPIIVALWIITIIILLENTYLKIENNKTELLKTLAIVGINFFILFFYNKISPALVIILSGFFYTLI,failed
3,MILQDARIDVPYTVVSINLPEDSVRHLSNLGLKVGSRLELISKTKSSAIVMLKSSRLAFDDSILSKIDVSESQETVETLPLSELEVGQFAYIDNIFAVNEAKRRLMDMGLTRHTKIYLRKVAPLGDPIEISLRGYELTLRKSEAQMISVVKIDNQEEKLEHHHHHH,not failed
4,MILSQQKYNYLAKVSDSNGVISALAFDQRGALKCLMAQYQMKEPTVAQMEELKVLVSEELTPYASSILLDPEYGLPAAQARDREAGLLLAYEKTGYDANTTSRLPDCLVDWSIKRLKEAGADAVKFLLYYDVDGDPQVNVQKQAYIERIGSECQAEDIPFFLEILTYDETISNNSSVEFAKVKVHKVNDAMKVFSAERFGIDVLKVEVPVNMVYVEGFAEGEVVYSKEEAAQAFREQEASTDLPYIYLSAGVSAELFQETLVFAHKAGAKFNGVLCGRATWAGSVQVYMEEGKEAARQWLRTSGLQNINELNKVLKTTASPWTEKVSVG,not failed
5,MIMINKTKRLMVSRQVKIPRKTYFWGPTPNPGMHPKDQSVTLLSIIRDYLKLSDKEREAARILANGLVKVDGKTVREKKFAVGFMDVIEINGESYRVVYNDQGALVLMKETKERASMKLLKVRSKVIAPGNRIQLGTHDGRTFITDDKSKKVGDVWAVSVPDMKISEIIKMQPGNKAYITAGSHVNQTGTISKIEAKEGSSANLVHFQEGFSTIKDHVFMIGSSKFSFVLSPEEVIPLEHHHHHH,not failed
6,MIMMENDRISDFFIVAFIFSWVLWIPVAMVSAGFSFPQPLQAFLESPYNPAAFGPTLAAVLLSYRYGGRDELLALLRKGVNYDFHRIWWPVILLFFPVLTAVALYLGVLWGDPQPYLYWTSQPLMVIMVFIYIFFLGGPLQEEFGWRGYALPRLQRRYSPIYAALIIGFIWGLWHIPLFFIGGSIQSQVPFWSFMILIISASVIYTWVYNSTGSILATMIIHTTGNLSYFLFPVQGTLAGGIFLMILNVAAALAVMLFAGSELKTDFGGQGH,failed
7,MIMNKIKKILKFCTLKKYDTSSALGREQERYRIISLSVISSLISKILSLLSLILTVSLTLPYLGQERFGVWMTITSLGAALTFLDLGIGNALTNRIAHSFACGKNLKMSRQISGGLTLLAGLSFVITAICYITSGMIDWQLVIKGINENVYAELQHSIKVFVIIFGLGIYSNGVQKVYMGIQKAYISNIVNAIFILLSIITLVISSKLHAGLPVLIVSTLGIQYISGIYLTINLIIKRLIKFTKVNIHAKREAPYLILNGFFFFILQLGTLATWSGDNFIISITLGVTYVAVFSITQRLFQISTVPLTIYNIPLWAAYADAHARNDTQFIKKTLRTSLKIVGISSFLLAFILVVFGSEVVNIWTEGKIQVPRTFIIAYALWSVIDAFSNTFASFLNGLNIVKQQMLAVVTLILIAIPAKYIIVSHFGLTVMLYCFIFIYIVNYFIWYKCSFKKHIDRQLNIRG,failed
8,MIMRKFASRVKDIQLSEIRKIFEVADEDTINLGIGEPDFSVPDHVREAVKDAVDEGLTHYTSNMGMEELREAIADKLKSENRVHAEPESIIVTVGASEAIFMCTQALLDIGDHALIPDPGFLSYDACVRLSGAVSIPVPLSMDEGFSMSPERVESLITQDTRVIIMNSPSNPTGSVMGKDDVKGIAEIAEDNDLIIISDEIYEKIIYDGKHYSPAQFTDNALIVNGFSKTYAMTGLRIGYVAGCEDIIEELLKVHQYNTACAPSISQYAALAAIRGPQNCVKDMVDEFRRRRDLMFRSLTDMGLECVLPGGAFYMFPYAGDSEEFTKLSLEAGVAVVPGSAFGNEGKGYIRMSYATSYELIEEAMERLKTVCGV,failed
9,MINARGETMARFTVVIPYYQKQHGVLGRALASVFAQTYQDFDLVIVDDESPYPIDQELAEISQEQKDRIVVIKQANAGPGGARNTGLDHVPDGTDYVAFLDSDDMWTPDHLRNAAFALNTYGGECYWASMQASDEFYYHFAISELEKNEGAARLSEKPLVIELPDLASVMLRNWSFLHLSCMVIGRPLFEKIRFDPALRLAAEDVLFFCDSILASKRTLLCDDAGAMRGMGVNIFHSIDNTSPEFLRQQFNTWVALDTLEGRFSRRPADVASIASYKNTARKQALWSQAGNLKRRRAPQFGLLFKWAMRDPALLRAAFELGAGKIVRSRLEHHHHHH,failed
10,MINEQRLLNTFLELVQIDSETGNESTIQPILKEKFIALGLDVKEDEAAKHPKLGANNLVCTMNSTIEEGEVPKLYLTSHMDTVVPAINVKPIVKDDGYIYSDGTTILGADDKAGLAAMLEVLQVIKEQQIPHGQIQFVITVGEESGLIGAKELNSELLDADFGYAIDASADVGTTVVGAPTQMLISAKIIGKTAHASTPKEGVSAINIAAKAISRMKLGQVDEITTANIGKFHGGSATNIVADEVILEAEARSHDPERIKTQVKHMTDVFETTASELGGKAEVTVEQSYPGFKINDNEAVVKIAQESARNLGLSANTIISGGGSDGSIINTFGIPSVILGVGYEKIHTTNERMPIKSLNLLASQVLEIIKIVARQSK,not failed
11,MINLVEFNLFLDLLGSALLLSLPWLLLGIIISSTFLIWTDEQKWVANFPRNRLLSSLVGSALGFLLPLGAFGSVPLVRRLLLQGAPIPLAVSFLVAAPTLNIFAIVRVLSSRQSQYGLIFLCISCSWLMAIVMGLVFSTYRLARQQAEDEGETALLNIPLLRSGALIILQSSMEASPRQGGLVFASGVNPVADFSWRQKLHLFGRNIIEEFQEFGGVLVIGTAIACGIVFFLPQAWLLQWAGLGPVRQTVLMMGWSFILPLGNFSNPDLLAPLGEQLWRGSMVAFLLWGSLFNLQTIGLWLVTLRLRPLSYLVVLVGLSVFLFAMVTNYYLS,failed
12,MINMKPQYYLGMMSGTSLDGVDIVLVDFSQDPQLILSDFFPMPEDLREKLTTLIQVGETTLQNLGELDHKLALLYSDCVNAFLQKNTFLPNQIQAIGCHGQTVWHSPNSQFPFTMQLGDMNLLAAKTGISVIGDFRRKDMAWGGQGAPLVPAFHEAVFSNSNFATAVLNIGGISNVSILFPNQAVIGFDTGPGNTLLDQWIEKHQGLRYDENGEWAAKGNVNKVLLDELLNEPFFSLPAPKSTGRELFNLVWLNHKIAKIREKLTALSVEMSFRPEDVQATLVELTVTSIVNALNQLQTDLPKRLLVCGGGAKNSLIMRGLHDNLLDWQVSTTTEQGFDIDYVEAAAFAWLAYCRINNLPANLPSVTGAKSAVSLGAIFPKD,failed
13,MINQNATYMEESAQSAVDNFGLGFNLGNTLDANGCGTGKPVATYETFWGQPETTQDMMTFLMQNGFNAVRIPVTWYEHMDAEGNVDEAWMMRVKAIVEYAMNAGLYAIVNVHHDTAAGSGAWIKADTDVYAATKEKFKKLWTQIANALADYDQHLLFEGYNEMLDGNNSWDEPQKASGYEALNNYAQDFVDAVRATGGNNATRNLIVNTYAAAKGENVLNNFMLPTDAVNNHLIVQVHSYDPWNFFNTKTTWDSECHNTLTEIFSALSKKFTTIPYIIGEYGTHGESDISVSKSSPAEKIKLAADQAADMVKLAKDHHSATFYWMSIFDGSDRIQPQWSLPTVVEAMQEAYNN,not failed
14,MIPDLVPVSLTPVTVVPNTVNTMTATIENQGNKDSTSFNVSLLVDGIVVDTQTVTSLESENSTNVDFHWTLDGTANSYTLTVNVDPENAVNEGNESNNTLTALVGTLEHHHHHH,not failed
15,MIPEHLSIYTAYNANIDAIVKLNQETIQNLINAFDPDEVKRRIEEYPREINEPIDFVARLVHTLKLGKPAAVPLVNEKMNEWFDKTFRYEEERLGGQAGIIANTLAGLKIRKVIAYTPFLPKRLAELFKKGVLYPVVENGELQFKPIQEAYREGDPLKINRIFEFRKGLKFKLGDETIEIPNSGRFIVSARFESISRIETREDIKPFLGEIGKEVDGAIFSGYQGLRTKYSDGKDANYYLRRAKEDIIEFKEKDVKIHVEFASVQDRKLRKKIITNILPFVDSVGIDEAEIAQILSVLGYRELADRIFTYNRLEDSILGGMIILDELNFEILQVHTTYYLMYITHRDNPLSEEELAKSLEFGTTLAAARASLGDIRGPDDYKVGLKVPFNERSEYVKLRFEEAKSRLRMREYKVVVIPTRLVQNPVLTVGLGDTISAGAFLTYLEFLKRH,not failed
16,MIPLHRLCRALALLMGFGPTLSALAASAPEGLPLLGTGEGLEVRGCETLVLRGGQVVRLAEIIGPEAEGAARAQAALGALVVGHSLRLYGESPLADRYGRLHAHGVTEEGRWVQGALVEAGLARVVIREGESALSGALLALEERARRAGRGLWPPASAASPPPGALAATGDGFQVVEGRIVSAARAGRRIYLNFGADWRSDFTVSLSEAMLARLLATGRDPLAWAGRRVRVRGWVTRRNGPLLDLPHPMALEGPLDGPPFLSPKENLDLEYPGN,failed
17,MIQALLQRYEKKIERRKLEKRTAFGAFAGRIGLVSNLFLFVSKFMIGLLSGSVSIMADAINSLSDTISSVLTLVGFYIAGKPADKEHPYGHERFEYISGMLVSLVITFIGFEFLTTSVDRILHPESIKVTPILFAVLALSIGIKIWQGLFYKKVSAKIDSQALVASAKDSFNDVYTTLAVLISAFIEGVTGLRIDGYIGFLIAAYIIYSGLQLIREFINELMGMRPSQTEIDEMKNVLSKMETIVGYHDLLIHNYGPSQTFASVHIEIDDRWDLNKAHQTIDAIEAKFKEELDVNLVCHIDPVNLYDPTQQFVHQTIKKIIRSFDASLKVHDIRLVTHGEEPKILFDLVLPTESKLSEFELGVEIQRQVYEKIGRYKVEITFDHTYLLQ,failed
18,MIQCILVMLGGGIGAVIRGFVTDVFNQKFNTSLPIPTLLINVVGSFCIGLLMGMCLNINWINPFIIVGILGGLTTFSTLSSELVKLLTTPKQINLFILYSILQYGVSFVACLLGYYLF,failed
19,MIQLKNVGITLSGKGYERFSLENINLEVNGEKVIILGPNGSGKTTLLRAISGLLPYSGNIFINGMEVRKIRNYIRYSTNLPEAYEIGVTVNDIVYLYEELKGLDRDLFLEMLKALKLGEEILRRKLYKLSAGQSVLVRTSLALASQPEIVGLDEPFENVDAARRHVISRYIKEYGKEGILVTHELDMLNLYKEYKAYFLVGNRLQGPISVSELLESSIVEGERNDALLVLDIMDKKVSIVKGDLGMKFGALGSLNRIYGIIGA,not failed
20,MIQQLLVTFPPMLFGAQALLTLLLIKGDICPGQRGRLHKMLPAIGVLWLAVASLRIEAFMVVFAIFYFYSQVQTKKTREKGPLWALHLANGLAFAYVSIQVFEQPNWPASAAMAVMIFFLGASFSQLLLTIARSRLQAFHRILPVTGIVSGMLLVLATLFSSYQLDEATLASATQPILISLALLISTIVVWCWHIFTHKAPEKVQLSIALLLALASMTSLQGLFALAV,failed
21,MIRAVFFDFVGTLLSVEGEAKTHLKIMEEVLGDYPLNPKTLLDEYEKLTREAFSNYAGKPYRPIRDIEEEVMRKLAEKYGFKYPENFWEIHLRMHQRYGELYPEVVEVLKSLKGKYHVGMITDSDTEYLMAHLDALGIKDLFDSITTSEEAGFFKPHPRIFELALKKAGVKGEEAVYVGDNPVKDCGGSKNLGMTSILLDRKGEKREFWDKCDFIVSDLREVIKIVDELNGQ,not failed
22,MIRFQPITTSDVQHYKFMEELLVESFPPEEYRELEHLREYTDRIGNFHNNIIFDDDLPIGFITYWDFDEFYYVEHFATNPALRNGGYGKRTLEHLCEFLKRPIVLEVERPVEEMAKRRINFYQRHGFTLWEKDYYQPPYKEGDDFLPMYLMVHG,failed
